One series addresses NT-proBNP (UniProt P16860 27-102). Put plainly: graphene field-effect transistor (GFET) aptasensor; LOD 0.01 pg/mL, range 0.1-10^4 pg/mL; Langmuir KD calculated but value not in material; PBS (137 mM NaCl, 2.7 mM KCl, 10 mM phosphate) used for immobilization and blank; sensing buffer dilution, pH and temperature not given in material; aptamer on. Particulars: protein: commercial.

Series [1] addresses cTnI (cardiac troponin I) (UniProt P19429 2-210). Put plainly: graphene field-effect transistor (GFET) aptasensor; cTnI 3.5 ng/mL; no significant response; PBS (137 mM NaCl, 2.7 mM KCl, 10 mM phosphate) used for immobilization and blank; sensing buffer dilution, pH and temperature not given in material; aptamer on. Particulars: protein: commercial.

Sequence of cTnI (cardiac troponin I) (P19429 2-210): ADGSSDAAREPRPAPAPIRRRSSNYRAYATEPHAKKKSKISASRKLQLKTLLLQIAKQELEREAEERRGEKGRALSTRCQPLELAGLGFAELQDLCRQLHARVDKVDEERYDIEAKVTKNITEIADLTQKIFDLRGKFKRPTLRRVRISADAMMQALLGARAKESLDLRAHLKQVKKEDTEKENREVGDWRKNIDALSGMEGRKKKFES
Sequence of NT-proBNP (P16860 27-102): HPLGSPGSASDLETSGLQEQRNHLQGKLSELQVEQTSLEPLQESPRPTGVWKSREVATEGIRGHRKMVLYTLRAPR

B1: azide-modified NT-proBNP aptamer (N20a in Fig. S3 legend) (ssDNA)
DNA: GGCAGGAAGACAAACAGGTCGTAGTGGAAACTGTCCACCGTAGACCGGTTATCTAGTGGTCTGTGGTGCTGT
modifications: 5'-NH2; 3'-azide (N3), photochemically coupled to graphene
For the molecule B1, the binding result is reported as “binds” with NT-proBNP and “no binding” in series [1].

(Values after PMC9775241, “One-Step Photochemical Immobilization of Aptamer on Graphene for Label-Free Detection of NT-proBNP”.)
